From publication PMC10516938, “Conformational dynamics of cohesin/Scc2 loading complex are regulated by Smc3 acetylation and ATP binding” (Nature Communications, 2023)
Residue numbers refer to the chain shown, from its start.

Columns and labels:
[1] = biological target: T1, Smc3 S72C E1155Q (S. cerevisiae, UniProt P47037 1-1230, S72C | E1155Q); experiment: cross-linking; in vivo BMOE cross-link of cysteine pairs in yeast cells arrested in late G1 by non-degradable Sic1(9m); Scc1-PK immunoprecipitated, western blot, band intensities quantified; settings: partners not purified
T1 construct: Smc3, S. cerevisiae; also called EQ mutant version of Smc3^S72C; source: S. cerevisiae W303, ectopically expressed, late G1 arrested cells, whole-cell extract
T1 sequence (looked up): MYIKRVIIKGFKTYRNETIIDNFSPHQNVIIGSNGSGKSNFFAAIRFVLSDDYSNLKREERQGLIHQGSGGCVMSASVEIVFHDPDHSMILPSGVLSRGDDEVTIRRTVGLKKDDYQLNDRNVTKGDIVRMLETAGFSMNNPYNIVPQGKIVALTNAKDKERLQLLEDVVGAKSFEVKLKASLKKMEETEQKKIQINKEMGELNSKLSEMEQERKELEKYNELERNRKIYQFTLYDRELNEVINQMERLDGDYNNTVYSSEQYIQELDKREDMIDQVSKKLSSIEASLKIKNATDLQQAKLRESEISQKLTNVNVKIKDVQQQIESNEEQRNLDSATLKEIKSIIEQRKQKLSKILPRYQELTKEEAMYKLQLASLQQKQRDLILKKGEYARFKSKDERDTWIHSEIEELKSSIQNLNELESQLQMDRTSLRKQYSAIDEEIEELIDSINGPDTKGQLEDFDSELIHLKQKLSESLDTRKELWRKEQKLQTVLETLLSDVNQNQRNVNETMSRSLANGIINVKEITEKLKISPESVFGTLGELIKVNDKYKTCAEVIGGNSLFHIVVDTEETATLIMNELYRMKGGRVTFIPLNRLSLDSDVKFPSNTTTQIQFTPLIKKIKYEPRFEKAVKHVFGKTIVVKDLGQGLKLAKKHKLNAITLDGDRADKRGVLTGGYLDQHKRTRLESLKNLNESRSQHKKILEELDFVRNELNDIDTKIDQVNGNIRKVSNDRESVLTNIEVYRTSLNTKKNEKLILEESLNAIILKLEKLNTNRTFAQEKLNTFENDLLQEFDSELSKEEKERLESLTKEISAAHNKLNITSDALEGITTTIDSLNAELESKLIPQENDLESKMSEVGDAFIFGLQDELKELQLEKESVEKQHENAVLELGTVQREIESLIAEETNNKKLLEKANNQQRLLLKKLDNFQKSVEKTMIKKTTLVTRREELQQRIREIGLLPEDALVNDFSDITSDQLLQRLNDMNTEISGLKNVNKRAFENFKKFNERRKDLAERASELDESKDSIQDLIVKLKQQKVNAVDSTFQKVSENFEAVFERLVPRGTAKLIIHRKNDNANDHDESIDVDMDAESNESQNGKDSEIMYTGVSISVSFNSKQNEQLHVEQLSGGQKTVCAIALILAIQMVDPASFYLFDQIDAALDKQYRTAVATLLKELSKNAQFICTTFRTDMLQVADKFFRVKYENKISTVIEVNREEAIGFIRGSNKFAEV

[2] = biological target: T2, Smc3^QQ S72C (S. cerevisiae, UniProt P47037 1-1230, S72C | K112Q | K113Q); experiment: as above; settings: partners not purified
T2 construct: Smc3, S. cerevisiae; source: S. cerevisiae W303, late G1 arrested cells, whole-cell extract
T2 sequence (looked up): T1 sequence (looked up) with K112Q, K113Q, Q1155E

B1: Scc2 E819C (natural protein, S. cerevisiae, UniProt Q04002 1-1493, looked up)
chain: MSYPGKDKNIPGRIIEALEDLPLSYLVPKDGLAALVNAPMRVSLPFDKTIFTSADDGRDVNINVLGTANSTTSSIKNEAEKERLVFKRPSNFTSSANSVDYVPTNFLEGLSPLAQSVLSTHKGLNDSINIEKKSEIVSRPEAKHKLESVTSNAGNLSFNDNSSNKKTKTSTGVTMTQANLAEQYLNDLKNILDIVGFDQNSAEIGNIEYWLQLPNKKFVLTTNCLTKLQMTIKNITDNPQLSNSIEITWLLRLLDVMVCNIKFSKSSLKMGLDDSMLRYIALLSTIVLFNIFLLGKNDSNLHRESYIMEPVNFLSDLIESLKILTIEYGSLKIEFDTFQEALELLPKYIRNGPFLDDNVTAKLVYIFSDLLMNNDIEATTNIQFQSFWDNVKRISSDILVSLFGSFDQQRGFIIEELLSHIEKLPTKRIQKKLRKVGNQNIYITDFTFTLMSMLENINCYSFCNQMKDIAPENIDLLKNEYKKQEEFLFNIVEHINDTILERFFKNPSALRYVIDNFVQDLLLLISSPQWPVTEKILSSLLKRLLSVYSPSMQVSANIETICLQLIGNIGSTIFDIKCSTRDHEDNNLIKMINYPETLPHFFKSFEECIAYNETIKCRRSATRFLWNLRLGTILILEEYTKDAKEQIITVDNELKKILEQIKDGGLGPELENREADFSTIKLDYFSILHAFELLNLYDPYLKLILSLLAKDKIKLRSTAIKCLSMLASKDKVILSNPMVKETIHRRLNDSSASVKDAILDLVSINSSYFEFYQQINNNYNDDSIMVRKHVLRINEKMYDETNDIVTKVYVIARILMKICDEEDNIIDMARLILLNRWILKVHEVLDQPEKLKEISSSVLLVMSRVAIMNEKCSQLFDLFLNFYLLNKEAHSKEAYDKITHVLTILTDFLVQKIVELNSDDTNEKNSIVDKQNFLNLLAKFADSTVSFLTKDHITALYPYMVSDEKSDFHYYILQVFRCTFEKLANFKQKFLYDLETTLLSRLPKMNVREIDEAMPLIWSVATHRHDTARVAKACSSCLSHLHPYINKANNEEAAIVVDGKLQRLIYLSTGFARFCFPKPSNDKIAFLQEGETLYEHITKCLLVLSKDKITHVIRRVAVKNLTKLCGNHPKLFNSRHVLHLLDKEFQSDQLDIKLVILESLYDLFLLEERKSVRNTGVNSTLSSNSILKKKLLKTNRVEFANDGVCSALATRFLDNILQLCLLRDLKNSLVAIRLLKLILKFGYTNPSHSIPTVIALFASTSQYIRHVAYELLEDLFEKYETLVFSSLSRGVTKAIHYSIHTDEKYYYKHDHFLSLLEKLCGTGKKNGPKFFKVLKRIMQSYLDDITDLTSTNSSVQKSIFVLCTNISNITFVSQYDLVSLLKTIDLTTDRLKEVIMDEIGDNVSSLSVSEEKLSGIILIQLSLQDLGTYLLHLYGLRDDVLLLDIVEESELKNKQLPAKKPDISKFSAQLENIEQYSSNGKLLTYFRKHVKDT
notes: Scc2, S. cerevisiae; source: S. cerevisiae W303, in vivo, whole-cell extract
fold change of the crosslink against wild-type Smc3 (S72C) [1]: ~2 fold | crosslinking efficiency relative to wild type [2]: ~10%
